Among the data in US8278109 are fold antibody concentration needed for the response, against SMA 3E8 and SMA 4D8 and response values, retold here.

The target in assay [1] is JEG-3 derived purified hCG-H (human) (UniProt P01215). In words: SPR (Biacore); B152 concentration (100 micrograms/ml) giving 223 RU on hCG-H compared with SMA 3E8 and SMA 4D8. (In general: In SPR one partner is held on a chip, and binding of the other changes the refractive index at the surface.)
For assay [2] the target is unchanged. The experiment in a line: SPR (Biacore); 7 injections of B152 at 20-100 micrograms/ml over JEG-3 hCG-H; at 100 micrograms/ml.
The target is the same in assay [3]. In words: SPR (Biacore); 7 injections of B152 at 20-100 micrograms/ml over JEG-3 hCG-H; lower end.

Sequence of UniProt P01215 (P01215 25-116, chain 1 of 2, other chains not shown): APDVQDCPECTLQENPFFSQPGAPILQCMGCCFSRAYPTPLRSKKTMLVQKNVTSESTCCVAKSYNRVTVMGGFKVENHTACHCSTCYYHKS

Regarding B152 (antibody), in assay [1], the fold antibody concentration needed for the response, against SMA 3E8 and SMA 4D8 was 50 to 100 fold. In addition, the results for the response in assay [2] and in assay [3] were 223 RU and 60 RU, respectively.
